Experiment [1] deals with Rat Y1 (clone) (rat) (UniProt P21555). The experiment can be described thus: competition with [125I]PYY on the rat Y1 clone.
The target of experiment [2] is rat NPY Y5 receptor, clone Y861 (rat). As to the kind of experiment: competition with [125I]PYY, membranes of transfected COS-7 cells.
Experiment [3] concerns the target Rat Y2 (clone) (rat). The experiment can be described thus: competition with [125I]PYY on the rat Y2 clone.
Experiment [4] deals with rat NPY Y5 receptor, clone Y217.24.13.6B (rat). The experiment can be described thus: competition with [125I]PYY, membranes of transfected COS-7 cells; second individual value in brackets.
For experiment [5] the target is unchanged. As to the kind of experiment: competition with [125I]PYY, membranes of transfected COS-7 cells; first individual value in brackets.
The target in experiment [6] is rat NPY Y5 receptor, clone Y555 (rat). As to the kind of experiment: competition with [125I]PYY, membranes of transfected COS-7 cells; average of two experiments.
Experiment [7] shares this target. As to the kind of experiment: competition with [125I]PYY, membranes of transfected COS-7 cells; second individual value in brackets.
Experiment [8] shares this target. As to the kind of experiment: competition with [125I]PYY, membranes of transfected COS-7 cells; first individual value in brackets.
Experiment [9] concerns the target Rat Y4/PP1 (clone) (rat) (UniProt Q63447). As to the kind of experiment: competition with rat [125I]PP on the rat Y4/PP1 clone.

Rat Y4/PP1 (clone) (rat), sequence (Q63447 whole entry): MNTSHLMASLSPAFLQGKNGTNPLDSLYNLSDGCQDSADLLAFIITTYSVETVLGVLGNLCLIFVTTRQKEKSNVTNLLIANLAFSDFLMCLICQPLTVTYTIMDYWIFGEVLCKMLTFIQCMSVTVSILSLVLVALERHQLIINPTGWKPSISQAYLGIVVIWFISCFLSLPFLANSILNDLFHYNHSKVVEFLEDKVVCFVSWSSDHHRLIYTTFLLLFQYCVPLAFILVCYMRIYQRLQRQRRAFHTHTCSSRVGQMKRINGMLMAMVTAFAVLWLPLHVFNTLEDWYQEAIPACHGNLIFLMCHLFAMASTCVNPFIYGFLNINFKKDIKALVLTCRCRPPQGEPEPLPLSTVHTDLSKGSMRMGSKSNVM

As for (1-24)NPY (peptide), the IC50 in experiment [1], in [2] and in experiment [3] was above 1000 nM throughout.

For “h(Leu^31 Pro^34)PYY (from UniProt P10082) (peptide)”, the values for the IC50 in experiment [4], in [5] and in experiment [2] were 0.69 nM, 0.65 nM and 2 nM, respectively.

The substance “p(13-36)NPY (from UniProt P01304) (peptide)” came in with an IC50 in experiment [3] of 1.3 nM.

Consider “p(Leu^31 Pro^34)NPY (from UniProt P01304) (peptide)”, for which the IC50 in experiment [1] amounted to 0.15 nM; in experiment [3] it was 150 nM.

For “r/h(2-36)NPY (from UniProt P01303) (peptide)”, the IC50 in [3] stood at 0.5 nM.

In the case of “r/h(10-36)NPY (from UniProt P01303) (peptide)”, the 50% inhibitory concentration (IC50) in [3] is 0.42 nM.

As to “r/h(32D-Trp)NPY (from UniProt P01303) (peptide)”, the values for the IC50 in experiment [1] and in experiment [2] were above 1000 nM and 7 nM, respectively.

As to “r/h(LP)NPY (from UniProt P01303) (peptide)”, the IC50 in experiment [6] was 0.96 nM; in experiment [7], 0.92 nM; in experiment [8] it was 1 nM.

For the substance “r/h(Leu^31 Pro^34)(3-36)NPY (from UniProt P01303) (peptide)”, the figures for the IC50 in [1] and in [3] were 44 nM and 154 nM, respectively.

On to r/hNPY (from UniProt P01303) (peptide), for which the IC50 in [3] came out at 0.24 nM.

Turning to “r/hNPY, P01303 (peptide; other documents disagree on this pair)”, the IC50 in [9] is above 1000 nM.

In experiment [3], rPP (from UniProt P06303) (peptide) registered an IC50 above 1000 nM.

rPYY (from UniProt P10631) (peptide) came in with an IC50 in experiment [3] of 0.079 nM. That is a picomolar value.

As usually defined, the IC50 is the midpoint of a concentration-inhibition curve. The low end stands for greater potency in that assay, the high end for weaker potency in that assay.

(Values after US5919901.)
